# Measurements reported in US20240360228A1 (BIOLEGEND, published 2024).
# Key:
# [1] = target: T1, human chemokine (C-C motif) receptor 8 (CCR8) (human, UniProt P51685 1-355); assay: flow cytometry blocking, PBMC CCR8+ CD4+ cells; competitor PE-AB11 (its MFI is read)
# T1 construct: On human peripheral blood lymphocytes / PBMC (native) or on human CCR8 GFP-transfected Ba/F3 cells; also called hCCR8; human CCR8
# Description: (§1) For blocking studies, 100 μL of the cell suspension were incubated with 10 μg purified isotype control, AB1, AB2, AB3, AB4, AB5, AB8, AB9, AB10, AB11, AB12, AB13, AB14, AB15, and Commercial ABI antibodies, or isotype control, as blocking agents.
# (§2) After incubation with the blocking agent, the cells were incubated with 0.25 μg of the indicated PE-conjugated antibody plus anti-human CD4 APC or anti-human CD3 for another 15 minutes in the dark and then washed 2 times with Cell Staining Buffer, and acquired in a FACSCanto II flow cytometer (BD Biosciences); the data was analyzed using FCS Express (De Novo Software); MFI correspond to the CCR8+ CD4+ lymphocytes or CCR8+ CD3+ lymphocytes.
# (§3) Percentage original MFI was calculated by dividing the MFI of samples blocked with AB1, AB2, AB3, AB4, AB5, AB6, AB7, AB8, AB9, AB10, AB11, AB12, AB13, AB14, AB15, and Commercial ABI antibodies, by the MFI of samples blocked with the corresponding isotype control. This value was subtracted from 100 to get a blocking percentage. The formula is shown below: […]
# [2] = target: T1, human chemokine (C-C motif) receptor 8 …; assay: flow cytometry blocking, PBMC CCR8+ CD4+ cells; competitor PE-AB6 (its MFI is read)
# Description: as §1, §2, §3
# [3] = target: T1, human chemokine (C-C motif) receptor 8 …; assay: flow cytometry blocking, PBMC CCR8+ CD4+ cells; competitor PE-AB5 (its MFI is read)
# Description: as §1, §2, §3
# [4] = target: T1, human chemokine (C-C motif) receptor 8 …; assay: flow cytometry blocking, PBMC CCR8+ CD4+ cells; competitor PE-AB10 (its MFI is read)
# Description: as §1, §2, §3
# [5] = target: T1, human chemokine (C-C motif) receptor 8 …; assay: flow cytometry blocking, PBMC CCR8+ CD4+ cells; competitor PE-AB4 (its MFI is read)
# Description: as §1, §2, §3
# [6] = target: T1, human chemokine (C-C motif) receptor 8 …; assay: flow cytometry blocking, PBMC CCR8+ CD4+ cells; competitor PE-AB15 (its MFI is read)
# Description: as §1, §2, §3
# [7] = target: T1, human chemokine (C-C motif) receptor 8 …; assay: flow cytometry blocking, PBMC CCR8+ CD4+ cells; competitor PE-ABII (its MFI is read)
# Description: as §1, §2, §3
# [8] = target: T1, human chemokine (C-C motif) receptor 8 …; assay: flow cytometry blocking, PBMC CCR8+ CD4+ cells; competitor PE-AB3 (its MFI is read)
# Description: as §1, §2, §3
# [9] = target: T1, human chemokine (C-C motif) receptor 8 …; assay: cell-based or functional assay
# [10] = target: T1, human chemokine (C-C motif) receptor 8 …; assay: flow cytometry blocking, PBMC CCR8+ CD4+ cells; competitor PE-AB2 (its MFI is read)
# Description: as §1, §2, §3
# [11] = target: T1, human chemokine (C-C motif) receptor 8 …; assay: flow cytometry blocking, PBMC CCR8+ CD4+ cells; competitor PE-AB1 (its MFI is read)
# Description: as §1, §2, §3
# [12] = target: T1, human chemokine (C-C motif) receptor 8 …; assay: flow cytometry blocking, PBMC CCR8+ CD4+ cells; competitor PE-AB13 (its MFI is read)
# Description: as §1, §2, §3
# [13] = target: T1, human chemokine (C-C motif) receptor 8 …; assay: flow cytometry blocking, PBMC CCR8+ CD4+ cells; competitor PE-AB14 (its MFI is read)
# Description: as §1, §2, §3
# [14] = target: T1, human chemokine (C-C motif) receptor 8 …; assay: flow cytometry blocking, PBMC CCR8+ CD4+ cells; competitor PE-AB12 (its MFI is read)
# Description: as §1, §2, §3
# T1 sequence (P51685 whole entry): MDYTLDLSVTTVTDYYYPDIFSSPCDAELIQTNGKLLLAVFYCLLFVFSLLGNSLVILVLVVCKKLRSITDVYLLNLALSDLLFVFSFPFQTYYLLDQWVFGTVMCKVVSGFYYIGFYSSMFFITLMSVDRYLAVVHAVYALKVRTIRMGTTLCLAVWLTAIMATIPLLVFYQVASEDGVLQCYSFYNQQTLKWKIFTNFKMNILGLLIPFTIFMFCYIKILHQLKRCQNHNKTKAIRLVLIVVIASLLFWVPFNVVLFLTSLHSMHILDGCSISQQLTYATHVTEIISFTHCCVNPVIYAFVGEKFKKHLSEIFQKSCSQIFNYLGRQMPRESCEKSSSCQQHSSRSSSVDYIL
Binder,% Blocking [1],MFI [1],% Blocking [2],MFI [2],% Blocking [3],MFI [3],% Blocking [4],MFI [4],% Blocking [5],MFI [5],% Blocking [6],MFI [6],% Blocking [7],MFI [7],% Blocking [8],MFI [8],% hCCR8-Ba/F3 - THP-1 complexes [9],% Blocking [10],MFI [10],% Blocking [11],further results
"AB14 (antibody, V domains shown, Hybridoma monoclonal; also called antibody 14; clone 14) VH: EVQLVESGGGLVQPKGSLKLSCAASGFTFNTYAMNWVRQAPGKGLEWVARIRSKSNNYATYYVDSVKDRFTISRDDSQSMLYLQINNLKTEDTAMYYCVRGRELGPYSAMDYWGQGTSVTVSS VL: DIVMTQAAPSVPVTPGESVSISCRSSKSLLHSNGNTYLYWFLQRPGQSPQLLIYRMSNLASGVPDRFSGSGSGTAFTLRISRVEAEDVGLYYCMQHLEYPFTFGGGTKLEIK",44.4%,501,-23.3%,966,-29.2%,969,28.6%,720,-39.4%,951,-218%,2520,9.26%,1000,-23.3%,855,0.97%,-32.6%,888,-39.8%,MFI [11]: 916; % Blocking [12]: 38.4%; MFI [12]: 577; % Blocking [13]: -237%; MFI [13]: 2980; % Blocking [14]: 43.3%; MFI [14]: 553
"AB1 (antibody, V domains shown, Hybridoma monoclonal (mice or rats immunised); Used purified and PE-conjugated; also called antibody 1; clone 1) VH: QVQLKESGPGLVKPSETLSLTCTVSGFSLTSYHISWVRQPPGKGLEWMGVIWGDGSKTYNSALKSRLSISRDTSKSQVFLKMRSLKTEDTATYYCARGGDSGFAYWGQGTLVTVSS VL: DIQMTQSPASLSASLEEIVTITCQASQDIGNWLSWYQQKPGKSPQLLIYGTTNLADGVPSRFSGSRSGTQYSLKISRLQVEDIGIYYCLQAYSVPLTFGSGTKLEIK",-4.76%,944,40.2%,469,25.7%,557,0.2%,1010,100%,0,1.66%,780,2.87%,1080,48.3%,359,0.6%,46.8%,356,28.8%,MFI [11]: 467; % Blocking [12]: 1.62%; MFI [12]: 921; % Blocking [13]: 6.44%; MFI [13]: 829; % Blocking [14]: -6.83%; MFI [14]: 1040
"AB3 (antibody, V domains shown, Hybridoma monoclonal; also called antibody 3; clone 3) VH: QVQLKESGPGLVKPSETLSLTCTVSGFSLTSYHISWVRQPPGKGLEWMGVIWGDGKTTYNSALKSRLSISRDTSKSQVFLKMNSLKTEDTATYYCARGGDSGFAYWGQGTLVTVSS VL: DIQMTQSPASLSASLEEIVTITCQASQDIGNWLSWYQQKPGKSPQLLIYGTTNLADGVPSRFSGSRSGTQYSLKISRLQVEDIGIYYCLQAYSVPLTFGSGTKLEIK",-4.37%,941,45.5%,427,38.8%,459,-1.1%,1020,34.6%,446,-10.2%,874,3.05%,1070,100%,0,0.74%,37%,422,36.5%,MFI [11]: 416; % Blocking [12]: 7.12%; MFI [12]: 870; % Blocking [13]: -2.68%; MFI [13]: 910; % Blocking [14]: -7.35%; MFI [14]: 1050

# The next lines start with results.
% Blocking [1],MFI [1],% Blocking [2],MFI [2],% Blocking [3],MFI [3],% Blocking [4],MFI [4],% Blocking [5],MFI [5],% Blocking [6],MFI [6],% Blocking [7],MFI [7],% Blocking [8],MFI [8],% hCCR8-Ba/F3 - THP-1 complexes [9],% Blocking [10],MFI [10],% Blocking [11],Binder,further results
39.5%,545,-26.3%,990,-32.8%,995,-32.5%,1340,-41.9%,969,-0.06%,793,15%,942,-38.4%,961,0.47%,-45.2%,972,-61.8%,"AB10 (antibody, V domains shown, Hybridoma monoclonal; also called antibody 10; clone 10) VH: EVQLVETGGGLVQPKGSLKLSCAVSGFTFKTNAMNWVRQAPGKGLEWVARIRSKSNKYATYYADSVKDRFTISRDDSQSMLYLQMNNLKTEDTAMYYCVRGSEMGYYYAMDYWGQGTSVTVSS VL: DIVMTQAAPSVPVTPGESVSISCRSSKSLLHSNGNTYLYWFLQRPGQSPQLLIYRMSNLASGVPDRFSGSGSGTAFTLRISRVEAEDVGVYYCMQHLEYPFTFGGGTKLEIK",MFI [11]: 1060; % Blocking [12]: 2.16%; MFI [12]: 916; % Blocking [13]: 27.5%; MFI [13]: 642; % Blocking [14]: -21.6%; MFI [14]: 1190
23.6%,689,-24.1%,973,-36.2%,1020,5.71%,950,-54.7%,1060,7.39%,734,22.9%,854,-27.5%,885,1.56%,-46.8%,983,-45.4%,"AB12 (antibody, V domains shown, Hybridoma monoclonal; also called antibody 12; clone 12) VH: EVQLVESGGGLVQPKGSLKLSCAASGFAFNTYAMNWVRQAPGKGLEWIARLRSKSNFYATYYADSVKDRFTISRDDSQSMLYLQMNNLKTEDTAVYYCVRGRELGPSYAMDYWGQGTSVTVSS VL: DIVMTQAAPSVPVTPGESVSISCRSSKSLLHSNGNTYLYWFLQRPGQSPQLLIYRMSNLASGVPDRFSGSGSGTAFTLRISRVEAEDVGVYYCMQHLEYPYTFGGGTKLEIK",MFI [11]: 953; % Blocking [12]: 14.2%; MFI [12]: 803; % Blocking [13]: 100%; MFI [13]: 0; % Blocking [14]: -5.38%; MFI [14]: 1030
-13.3%,1020,47.3%,413,45.1%,411,-12.2%,1130,-61.4%,1100,-7.83%,855,-7.57%,1190,48.2%,359,0.43%,45.8%,363,100%,"AB4 (antibody, V domains shown, Hybridoma monoclonal; also called antibody 4; clone 4) VH: QVQLKESGPGLVKPSETLSLTCTVSGFSLTGYHVSWVRQPPGKGLEWMGVIWGDGRTTYNSALKSRLSISRDTSKSQVFLKMSSLKTEDTATYYCARGGDSGFAYWGQGTLVTVSS VL: DIQMTQSPASLSASLEEIVTITCQASQDIGNWLSWYQQKPGKSPQLLIYGATSLADGVPSRFSGSRSGTQFSLKISRLQVEDIGIYYCLQAYIVPLTFGSGTKLESK",MFI [11]: 0; % Blocking [12]: -3.67%; MFI [12]: 971; % Blocking [13]: 0.97%; MFI [13]: 878; % Blocking [14]: -4.04%; MFI [14]: 1020
